This is an account of results in IntAct's records for PubMed 17641689.

Sequences and labels used below:
B1: Retinoic acid receptor alpha (Homo sapiens), P10276 (parent)
chain: MASNSSSCPTPGGGHLNGYPVPPYAFFFPPMLGGLSPPGALTTLQHQLPVSGYSTPSPATIETQSSSSEEIVPSPPSPPPLPRIYKPCFVCQDKSSGYHYGVSACEGCKGFFRRSIQKNMVYTCHRDKNCIINKVTRNRCQYCRLQKCFEVGMSKESVRNDRNKKKKEVPKPECSESYTLTPEVGELIEKVRKAHQETFPALCQLGKYTTNNSSEQRVSLDIDLWDKFSELSTKCIIKTVEFAKQLPGFTTLTIADQITLLKAACLDILILRICTRYTPEQDTMTFSDGLTLNRTQMHNAGFGPLTDLVFAFANQLLPLEMDDAETGLLSAICLICGDRQDLEQPDRVDMLQEPLLEALKVYVRKRRPSRPHMFPKMLMKITDLRSISAKGAERVITLKMEIPGSMPPLIQEMLENSEGLDTLSGQPGGGGRDGGGLAPPPGSCSPSLSPSSNRSSPATHSP
partner: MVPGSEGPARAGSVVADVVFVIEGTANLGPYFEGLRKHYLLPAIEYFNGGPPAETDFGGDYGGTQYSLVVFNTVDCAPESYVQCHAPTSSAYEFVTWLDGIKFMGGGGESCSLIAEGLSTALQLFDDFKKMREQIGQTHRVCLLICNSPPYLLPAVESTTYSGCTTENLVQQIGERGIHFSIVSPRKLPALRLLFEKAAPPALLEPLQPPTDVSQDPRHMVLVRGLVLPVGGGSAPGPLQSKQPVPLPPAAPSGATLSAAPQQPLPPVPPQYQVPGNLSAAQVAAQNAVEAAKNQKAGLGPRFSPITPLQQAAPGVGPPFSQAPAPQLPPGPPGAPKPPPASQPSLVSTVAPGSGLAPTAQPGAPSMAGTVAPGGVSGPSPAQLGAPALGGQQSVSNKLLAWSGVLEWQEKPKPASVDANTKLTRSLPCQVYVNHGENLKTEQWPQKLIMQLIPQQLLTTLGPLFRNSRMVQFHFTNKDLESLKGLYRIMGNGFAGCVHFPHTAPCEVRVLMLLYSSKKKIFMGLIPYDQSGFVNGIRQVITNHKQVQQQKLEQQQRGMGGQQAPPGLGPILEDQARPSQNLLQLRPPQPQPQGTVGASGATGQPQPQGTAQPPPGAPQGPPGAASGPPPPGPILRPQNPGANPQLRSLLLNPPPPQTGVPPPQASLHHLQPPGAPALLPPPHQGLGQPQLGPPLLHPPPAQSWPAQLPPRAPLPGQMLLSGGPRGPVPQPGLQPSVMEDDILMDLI
B2: Retinoic acid receptor RXR-alpha (Mus musculus), P28700 (parent)
chain: MDTKHFLPLDFSTQVNSSSLNSPTGRGSMAVPSLHPSLGPGIGSPLGSPGQLHSPISTLSSPINGMGPPFSVISSPMGPHSMSVPTTPTLGFGTGSPQLNSPMNPVSSTEDIKPPLGLNGVLKVPAHPSGNMASFTKHICAICGDRSSGKHYGVYSCEGCKGFFKRTVRKDLTYTCRDNKDCLIDKRQRNRCQYCRYQKCLAMGMKREAVQEERQRGKDRNENEVESTSSANEDMPVEKILEAELAVEPKTETYVEANMGLNPSSPNDPVTNICQAADKQLFTLVEWAKRIPHFSELPLDDQVILLRAGWNELLIASFSHRSIAVKDGILLATGLHVHRNSAHSAGVGAIFDRVLTELVSKMRDMQMDKTELGCLRAIVLFNPDSKGLSNPAEVEALREKVYASLEAYCKHKYPEQPGRFAKLLLRLPALRSIGLKCLEHLFFFKLIGDTPIDTFLMEMLEAPHQAT
partner: B1 partner

The variants in one assay derive from B1. To be noted: with med25_human MED25, Q71SY5.
Turning to L414A, the “effect of a mutation on the interaction” value was “disrupting interaction”.

With M413A, the “effect of a mutation on the interaction” value is “disrupting interaction”.

A further assay covers variants of B1. To be noted: with med25_human MED25, Q71SY5. This is another data set of the same source.
On to I410A, for which the “effect of a mutation on the interaction” value is on record as “disrupting interaction”.

As for L409A, the “effect of a mutation on the interaction” value is listed as “disrupting interaction”.

The variants in the next assay derive from B1. To be noted: with med25_human MED25, Q71SY5. The source holds these as a separate data set.
For the variant E412Q, the “effect of a mutation on the interaction” value was “disrupting interaction”.

Take E415Q: the “effect of a mutation on the interaction” value is reported as “disrupting interaction”.

Variants of B2 are the subject of the next assay. To be noted: with med25_human MED25, Q71SY5.
With L460A, the “effect of a mutation on the interaction” value was “disrupting interaction”.

For the variant M459A, the “effect of a mutation on the interaction” value is on record as “disrupting interaction”.

Variants of B2 are the subject of a further assay. To be noted: with med25_human MED25, Q71SY5. The source holds these as a separate data set.
With F455A, the “effect of a mutation on the interaction” value is recorded as “disrupting interaction”.

Variants of B2 are the subject of another assay. To be noted: with med25_human MED25, Q71SY5. The source holds these as a separate data set.
As to E461Q, the “effect of a mutation on the interaction” value was “decreasing interaction”.
